The chains are these.
B1: RiSxph: Saxiphilin of Ranitomeya imitator, Mimic poison frog, SEQ ID NO:6 (protein)
chain: MRRSSYAASQEMRMTLRVLLCLCLWALSSAAPNTRNVRWCVTSDTEEQKCNDLVTSCHVDEILLICVKKSSTEDCVRAISNGEADAISLDSKDVYKASLDPFNLKPIMTEAYSESEHTPCMRHRQSVLGGKIMKIGAFVPKCDEKGNYVPKQCHGSTGYCWCLNENGEEIEGTRTPPGNPGLTCENKANKPPCLKERQKLLSAKPSPAVFVPECDEKGNYRPQQSHVYSWCVDEYGEEVFGSRSFPGKPPKPCEASGETPCIKERNKVLSAAEPLLGAFVPDCDEKGYFSPLQSHGSTGYSWCVTKNGDEIKGTRTGPGQSPPTCEVPAPVTLHYAVAVVKKSSSFHLDQLKGKRSCHSAVGEAAGWVAPLNVLLKKKLLLWEEPEPKTIEKVASEIFSASCAPGAQEANLCEQCAGQEDKCTRGPGEPYYGDEGAFRCLREDKGDVAFVEDTALTGQYSDNFELLCPDNTRRPLSQYKICNFGRIPRHAVVTRSSGDKMKDITEYLLQAQKKECKLFSSTHGKDLLFEDTTSALIALPSAMDTFLFLGPDLFNGMKTLNGARPPQVNQQIRWCPQSKNEKKKCDDWSSVSGGAIKCTEPSSGLECIKMILKGEAEAVNLDIEHSYIALKCGLLPSVDEYRNKDDLIPCQIPGSEYSEFGSYRIVALVKKTDKDLTWNNLQGKKSCHTRAGDMIGWNIPVYLISKKTKNCDLGSYFSQSCAPGSPIDSNLCKLCIGDPQNPQANTKCSISDKEAYYGHEGAIRCLVEKGDVAFVPHTAIFENTDGKNPALWAKDLKSTDFELLCPDGSRAPVNDYKKCKLSGIANQIAITRPESVKDVVRIIQNQQSLYGRTGSQKDIFQMFSSSYGQNLLFSDRTQCLVEFDRMLDRDIMDDYFGKPFHKHLLRDNDCLPKSALASACSFHH
modifications: Ranitomeya imitator
B2: MaSxph: Saxiphilin of Mantella aurantiaca, Golden mantella, SEQ ID NO:3 (protein, listed as Mantella aurantiaca)
chain: MALTFQTALYFTIIGLSFVTSSARDVRWCVISDLEQKKCNDLVGSCKVSGITLVCVHRSSTENCMTAIRDEQADAMFLDSGDVYKASMSPYNLKPIIAESYSSHKECLKKRQEALGGANVLGQFVPQCDEKGSYQPQQCYGSTGHCWCVNAIGEEIVGTKTQPGQTQATCERHDQTKCLKDRQKALAKKMIGGFVPQCDEKGNFKPRQCHGSTGYCWCTNANGEKIAATNTPPQQSPPTCERHDLDSCHYAVAVVKKSSIFQFNQLKGKRSCHSGVSKTDGWKAPVSVLVDKNLLSWDRAAKESIEKAVSKFFSDSCIPGATETNLCNQCMGEGGKKCMSSHDEPYYGDHGAFRCLKEDKGDVAFLKNTVLSDTHSEDYELLCPDNTRKPLNKYKECNLGKVPADAVVTRKSGDKIKDINDFLLEAQKKHCQLFSSAHGKDLMFDDSTTQLSLLPPEVDVFFFLGVQWLNTMKTLTADVKPPSKNKVRWCTVNNLEKMKCDDWSAVSGGAIECTEASSPEHCIKQIVKGEADAVTLDVQYMYEALKCGLLPAVEEYHNKDDFGPCKTPGSEIKDFGAKRAVALVKKSNKDINWHNLKGKKSCHTGVGDQAGWIIPVGLISRQIDNCNIDSFFSESCAPGSDTTSNFCKLCIGDPSNPMANTKCSLSDKEAYHGNEGAIRCLVEKGDVAFVHHTAVFENTDGKNPAEWAANLKSEDFEILCLDGSRAPVSNYMTCRLSGVPPRAIVTREESVSDVVRILINQQSLFGRNGFEKDMFQMFSSNKGQNLLFNDGTQCLIEFDRQPRGIMEDYFGKPYYNAVYNTSKCVLPSELTSACTFKHC
B3: F784A: RcSxph mutant F784A (protein)
chain: MAPTFQTALFFTIISLSFAAPNAKQVRWCAISDLEQKKCNDLVGSCNVPDITLVCVLRSSTEDCMTAIKDGQADAMFLDSGEVYEASKDPYNLKPIIAEPYSSNRDLQKCLKERQQALAKKMIGHYIPQCDEKGNYQPQQCHGSTGHCWCVNAMGEKISGTNTPPGQTRATCERHELPKCLKERQVALGGDEKVLGRFVPQCDEKGNYEPQQFHGSTGYSWCVNAIGEEIAGTKTPPGKIPATCQKHDLVTTCHYAVAMVKKSSAFQFNQLKGKRSCHSGVSKTDGWKALVTVLVEKKLLSWDGPAKESIQRAMSKFFSVSCIPGATQTNLCKQCKGEEGKNCKNSHDEPYYGNYGAFRCLKEDMGDVAFLRSTALSDEHSEVYELLCPDNTRKPLNKYKECNLGTVPAGTVVTRKISDKTEDINNFLMEAQKRQCKLFSSAHGKDLMFDDSTLQLALLSSEVDAFLYLGVKLFHAMKALTGDAHLPSKNKVRWCTINKLEKMKCDDWSAVSGGAIACTEASCPKGCVKQILKGEADAVKLEVQYMYEALMCGLLPAVEEYHNKDDFGPCKTPGSPYTDFGTLRAVALVKKSNKDINWNNIKGKKSCHTGVGDIAGWVIPVSLIRRQNDNSDIDSFFGESCAPGSDTKSNLCKLCIGDPKNSAANTKCSLSDKEAYYGNQGAFRCLVEKGDVAFVPHTVVFENTDGKNPAVWAKNLKSEDFELLCLDGSRAPVSNYKSCKLSGIPPPAIVTREESISDVVRIVANQQSLYGRKGFEKDMFQLFSSNKGNNLLFNDNTQCLITADRQPKDIMEDYFGKPYYTTVYGASRSAMSSELISACTIKHC
B4: T563A: RcSxph mutant T563A (protein)
chain: B3 chain with T582A, A803F
B5: D785A: RcSxph mutant D785A (protein)
chain: B3 chain with A803F, D804A
B6: I782F: RcSxph mutant I782F (protein)
chain: B3 chain with I801F, A803F
B7: Q787E: RcSxph mutant Q787E (protein)
chain: B3 chain with A803F, Q806E
B8: Y558F: RcSxph mutant Y558F (protein)
chain: B3 chain with Y577F, A803F
B9: I782A/Y558A: RcSxph double mutant I782A/Y558A (protein)
chain: B3 chain with Y577A, I801A, A803F
B10: Y795A: RcSxph mutant Y795A (protein)
chain: B3 chain with A803F, Y814A
B11: Q787A: RcSxph mutant Q787A (protein)
chain: B3 chain with A803F, Q806A
B12: K789A: RcSxph mutant K789A (protein)
chain: B3 chain with A803F, K808A

Changes are numbered by the printed parent chain. Numbers in names are those of the source.

The nature of one assay: Fluorescence polarization (FP) binding to fluorescein labeled STX. The conditions noted are these: […]G = RT ln (Kd(XSxph)/Kd(RcSxph)); T = 298K. Here is the method: […]; Measurements were performed at 25° C. on a Synergy H1 microplate reader (BioTek) using the polarization filter setting (excitation 485 nm, emission 528 nm). […]. The dissociation constants were calculated using GraphPad Prism by fitting fluorescence millipolarization (mP=P·10^−3, where P is polarization) as a function of Sxph concentration using the equation: P={(Pbound−Pfree) [Sxph]/(Kd+[Sxph])}+Pfree, where P is the polarization measured at a given Sxph concentration, Pfree is the […], and Pbound is the maximum polarization of Sxph bound by F-STX (Rossi and Taylor, Hansen et al.).
(In general: Fluorescence polarisation rises when a labelled molecule tumbles more slowly, as on binding a larger partner.)
On to B1, for which the “[…]G (kcal mol^−1) relative to RcSxph” value was -5.52 kJ/mol.

Take B2: the “[…]G (kcal mol^−1) relative to RcSxph” value was -7.24 kJ/mol.

Staying with this assay, now noted: […]G = RT ln (KdSxph mutant/KdSxph); T = 298K.
Consider B3, for which the “[…]G (kcal mol^−1) relative to wild-type RcSxph” value came to 11.3 kJ/mol.

For B4, the “[…]G (kcal mol^−1) relative to wild-type RcSxph” value was -0.837 kJ/mol.

B5: the “[…]G (kcal mol^−1) relative to wild-type RcSxph” value stood at 2.38 kJ/mol.

For B6, the “[…]G (kcal mol^−1) relative to wild-type RcSxph” value was 1.92 kJ/mol.

For B7, the “[…]G (kcal mol^−1) relative to wild-type RcSxph” value is -0.38 kJ/mol.

B8: the “[…]G (kcal mol^−1) relative to wild-type RcSxph” value was -0.418 kJ/mol.

Regarding B9, the “[…]G (kcal mol^−1) relative to wild-type RcSxph” value was -4.48 kJ/mol.

Regarding B10, the “[…]G (kcal mol^−1) relative to wild-type RcSxph” value is 0.33 kJ/mol.

In the case of B11, the “[…]G (kcal mol^−1) relative to wild-type RcSxph” value came out at 1.05 kJ/mol.

In the case of B12, the “[…]G (kcal mol^−1) relative to wild-type RcSxph” value is -0.92 kJ/mol.

The record behind these values is US20260063625A1, “COMPOSITIONS FOR AND METHODS OF DETECTING FOOD TOXINS” (priority 2022, published 2026).
